Reference: patent publication US20090203038A1 (AbbVie / Abbott, published 2009)

Biological target: T1, biotinylated cyclic BNP (1-32c) (human, biotinylated; cyclic)
T1 construct: also called human BNP
Test: flow cytometry, yeast-displayed scFv, biotinylated cyclic BNP (1-32c) detected with SA:PE
Procedure: Dilutions of the transformation reaction were plated on selective glucose plates (2% glucose (0.67% yeast nitrogen base, 0.105% HSM-trp-ura, 1.8% bacterial agar, 18.2% sorbitol, 0.86% NaH₂PO₄H₂O, 1.02% Na₂HPO₄ 7H₂O)) and incubated at 30° C. for 48-72 hours. Selective glucose media was inoculated with individual colonies and grown shaking at 30° C. for 16-20 hours. Protein expression was induced in colonies by transferring 0.5 OD600 of cells/ml (1e7 cells/0.5 OD/ml) to selective galactose media. Colonies were shaken at 20° C. for 16-24 hours and then analyzed by the FACS Aria flow cytometer for binding to cyclic BNP (referred to as “1-32c”) (SEQ ID NO:10) and anti-V5.

T1 sequence (peptide, as listed by the source): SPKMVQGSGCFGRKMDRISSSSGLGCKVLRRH

B1: 3-631-436 scFv (wildtype), displayed on the surface of yeast (scFv)
scFv: QVQLQQPGAELVRPGASVKLSCKASGYTFTSYWMNWVKQRPEQGLEWIGRIDPYDSETHYNQKFKDKAILTVDKSSSTAFVQLTSLTSEDSAVYYCVSDGYWGAGTTVTVSSGPAKELTPLKEAKVSDVVMTQTPLTLSVTTGQPASISCKSSQSLLDSDGKTYLNWLFQRPGESPKLLIYVVSKLESGVPDRFTGSGSGTDFTLKISRVEAEDLGVYYCLQATHFPWTFGGGTKLEIKRAAALESRGPFEGKPIPNPLLGLDSTRTGHHHHHH
B1: binds.
